Results from publication PMC10937111, “Structural basis for intra- and intermolecular interactions on RAD9 subunit of 9-1-1 checkpoint clamp implies functional 9-1-1 regulation by RHINO” (The Journal of Biological Chemistry, 2024).

T1: recombinant human 9-1-1 ring for crystallization (RAD9 residues 1-270, His-HUS1, RAD1 F64A/M256A/F266A) (human, UniProt Q99638 1-270; O60671 1-282; O60921 2-280, F64A | M256A | F266A)
T1 construct: C-terminal truncated RAD9, human, residues 1-270; RAD1, human, with the triple substitutions F64A/M256A/F266A; HUS1, human; source: E. coli BL21(DE3), co-expressed, purified (HiTrap Heparin, HiTrap Q, HiLoad Superdex200); copies: + +
T1 sequence 1: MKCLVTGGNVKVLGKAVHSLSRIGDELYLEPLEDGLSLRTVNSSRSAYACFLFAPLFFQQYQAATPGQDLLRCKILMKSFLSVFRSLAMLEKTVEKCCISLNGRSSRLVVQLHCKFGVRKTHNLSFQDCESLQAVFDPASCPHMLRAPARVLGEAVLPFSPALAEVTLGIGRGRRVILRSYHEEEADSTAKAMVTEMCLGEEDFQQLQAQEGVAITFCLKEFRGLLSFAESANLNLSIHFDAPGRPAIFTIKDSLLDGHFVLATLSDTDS
T1 sequence 2: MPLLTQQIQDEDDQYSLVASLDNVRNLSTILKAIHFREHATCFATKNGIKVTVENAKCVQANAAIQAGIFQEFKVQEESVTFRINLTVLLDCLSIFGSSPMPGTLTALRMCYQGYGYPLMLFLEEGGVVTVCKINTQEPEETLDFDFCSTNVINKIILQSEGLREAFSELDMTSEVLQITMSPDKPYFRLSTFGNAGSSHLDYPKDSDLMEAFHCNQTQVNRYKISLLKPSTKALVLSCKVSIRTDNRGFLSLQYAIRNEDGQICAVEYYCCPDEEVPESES
T1 sequence 3: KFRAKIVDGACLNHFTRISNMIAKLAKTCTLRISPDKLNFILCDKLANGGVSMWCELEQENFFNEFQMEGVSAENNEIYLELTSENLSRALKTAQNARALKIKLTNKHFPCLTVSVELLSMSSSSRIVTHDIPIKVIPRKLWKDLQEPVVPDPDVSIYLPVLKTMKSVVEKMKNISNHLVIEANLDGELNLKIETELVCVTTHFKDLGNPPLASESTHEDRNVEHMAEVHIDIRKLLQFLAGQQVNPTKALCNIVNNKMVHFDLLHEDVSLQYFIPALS

T2: FLAG-tagged 9^ΔC-1-1 (9-1-1 ring), wild type (human, UniProt Q99638 1-272; O60671 1-282; O60921 1-280)
T2 construct: RAD9 with the C-tail truncated (RAD9^ΔC), human, residues 1-272, from pFastBac1-FLAG-RAD9^ΔC; RAD1 subunit of 9-1-1; HUS1 subunit of 9-1-1; also called 9^ΔC-1-1 (W); purified 9^ΔC-1-1; copies: + +
T2 sequence (looked up) 1: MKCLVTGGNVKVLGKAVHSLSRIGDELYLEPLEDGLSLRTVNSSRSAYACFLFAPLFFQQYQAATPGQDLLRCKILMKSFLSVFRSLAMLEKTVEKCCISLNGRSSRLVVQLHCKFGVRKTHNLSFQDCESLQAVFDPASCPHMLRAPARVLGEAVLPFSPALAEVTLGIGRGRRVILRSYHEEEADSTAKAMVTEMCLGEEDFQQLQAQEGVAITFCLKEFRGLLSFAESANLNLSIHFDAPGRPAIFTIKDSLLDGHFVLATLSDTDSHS
T2 sequence (looked up) 2: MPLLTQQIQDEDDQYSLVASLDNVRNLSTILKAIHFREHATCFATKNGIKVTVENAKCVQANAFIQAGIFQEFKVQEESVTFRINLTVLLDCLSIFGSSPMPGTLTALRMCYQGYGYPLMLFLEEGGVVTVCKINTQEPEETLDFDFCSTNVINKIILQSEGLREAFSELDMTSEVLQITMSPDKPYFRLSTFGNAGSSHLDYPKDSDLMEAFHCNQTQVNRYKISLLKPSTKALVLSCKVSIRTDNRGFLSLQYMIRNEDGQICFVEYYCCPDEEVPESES
T2 sequence (looked up) 3: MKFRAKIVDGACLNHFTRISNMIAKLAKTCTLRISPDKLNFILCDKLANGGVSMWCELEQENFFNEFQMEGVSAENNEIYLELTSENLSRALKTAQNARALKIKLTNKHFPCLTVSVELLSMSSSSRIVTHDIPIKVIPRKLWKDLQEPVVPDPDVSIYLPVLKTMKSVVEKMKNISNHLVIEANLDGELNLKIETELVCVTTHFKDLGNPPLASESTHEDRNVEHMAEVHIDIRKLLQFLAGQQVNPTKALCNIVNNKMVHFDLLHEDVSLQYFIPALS


Key:
[1] = molecular target: T1, recombinant human 9-1-1 ring for …; test: crystal structure; 0.13 mM 9-1-1 ring incubated with about 10-fold molar excess of the RHINO peptide at 277 K overnight; vapor diffusion, 0.2 M potassium iodine, 14% PEG 3350, 293 K; 2.81 Å; settings: both partners purified
[2] = molecular target: T2, FLAG-tagged 9^ΔC-1-1 (9-1-1 ring), wild …; test: pull-down; GST or GST-fusion proteins from E. coli lysate immobilised on Glutathione-Sepharose 4B beads and washed four times; incubated with purified PCNA, FLAG-tagged 9^ΔC-1-1 (W) or its LVF mutant for 2 h at 4 °C in 25 μl of buffer H (25 mM HEPES-NaOH pH 7.8, 150 mM NaCl, 1 mM EDTA, 10% glycerol, 0.01% NP-40); immunoblotting with anti-RAD1 or anti-PCNA antibody; settings: both partners purified

binding result [1] | binding result [2] | Binder
binds | – | TSKFPHLTFESP (also called RHINO (residues 88-99); source: synthetic peptide (TORAY Research Center, Inc)) [human RHINO peptide (88-TSKFPHLTFESP-99)]
– | binds | PPPKKARSLFFGSIL (peptide, UniProt Q99638 356-370, looked up, RAD9, human, residues 356-370 of the C-tail, F361A; source: E. coli Rosetta 2(DE3)pLysS, from cell lysate immobilised on Glutathione-Sepharose 4B beads and washed) [GST-RAD9C15 F361A]
– | binds | PPPKKFRSLFFGSIL (peptide, UniProt Q99638 356-370, looked up, RAD9, human, residues 356-370 of the C-tail; source: E. coli Rosetta 2(DE3)pLysS, from cell lysate immobilised on Glutathione-Sepharose 4B beads and washed) [GST-tagged RAD9 (residues 356-370) (GST-RAD9C15), wild type]
– | binds | GST-tagged p21 C-terminal region (residues 87-164) (GST-p21CT), wild type (domain or fragment, human, UniProt P38936 87-164, looked up, p21, C-terminal region carrying the PIP-box, residues 87-164; also called p21 (W); source: E. coli Rosetta 2(DE3)pLysS, from cell lysate immobilised on Glutathione-Sepharose 4B beads and washed) DELGGGRRPGTSPALLQGTAEEDHVDLSLSCTLVPRSGEQAEGSPGGPGDSQGRKRRQTSMTDFYHSKRRLIFSKRKP
– | binds | GST-p21CT FY (F150A/Y151A) (domain or fragment, human, UniProt P38936 87-164, looked up, p21, C-terminal region, residues 87-164, F150A/Y151A in the PIP-box; also called p21CT variant with the F150A/Y151A double substitution in the PIP-box; source: E. coli Rosetta 2(DE3)pLysS, from cell lysate immobilised on Glutathione-Sepharose 4B beads and washed) DELGGGRRPGTSPALLQGTAEEDHVDLSLSCTLVPRSGEQAEGSPGGPGDSQGRKRRQTSMTDAAHSKRRLIFSKRKP
– | binds | PPPKKFRSLAFGSIL (peptide, UniProt Q99638 356-370, looked up, RAD9, human, residues 356-370 of the C-tail, F365A; source: E. coli Rosetta 2(DE3)pLysS, from cell lysate immobilised on Glutathione-Sepharose 4B beads and washed) [GST-RAD9C15 F365A]
